Measurements published in the supplement of paper PMC9112550, “Optimization of the antimicrobial peptide Bac7 by deep mutational scanning” (BMC Biology, 2022).

Each sequence was assayed on Escherichia coli TOP10 (assay: shrunken log2 fold change of peptide-encoding DNA abundance (4.5 h post-induction vs induction); higher = less antimicrobial activity (less host growth inhibition)). Details: time post-induction: 4.5 h; library: site-saturation at positions 5, 18, 19, 20.
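Also: peptides expressed intracellularly from a pBAD plasmid library in pooled LB shake-flask culture, induced with 0.3% L-arabinose, DNA abundance read by NGS, three biological replicates, DESeq2 with apeglm shrinkage.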

Sequence	shrunken log2 fold change
RRIRNRPPRLPRPRPRPDANPRP	-0.318
RRIRRRPPRLPRPRPRPYWFPRP	-0.299
RRIRSRPPRLPRPRPRPNHEPRP	-0.175
RRIRKRPPRLPRPRPRPMNAPRP	0.228
RRIRERPPRLPRPRPRPCFFPRP	-0.331
RRIRKRPPRLPRPRPRPNQFPRP	0.103
RRIRARPPRLPRPRPRPYMNPRP	-0.337
RRIRCRPPRLPRPRPRPGGVPRP	0.42
RRIRERPPRLPRPRPRPPSLPRP	-0.0799
RRIRYRPPRLPRPRPRPIYPPRP	-0.559
RRIRKRPPRLPRPRPRPDLAPRP	0.042
RRIRMRPPRLPRPRPRPCYTPRP	-0.0524
RRIRPRPPRLPRPRPRPMLPPRP	0.0406
RRIRKRPPRLPRPRPRPDESPRP	0.0701
RRIRGRPPRLPRPRPRPAQSPRP	0.723
RRIRPRPPRLPRPRPRPTCHPRP	1.02
RRIRYRPPRLPRPRPRPTMGPRP	0.0568
RRIRNRPPRLPRPRPRPQNEPRP	-0.331
RRIRMRPPRLPRPRPRPPAIPRP	0.911
RRIRCRPPRLPRPRPRPYATPRP	-0.294

Sequence	shrunken log2 fold change
RRIRARPPRLPRPRPRPFFCPRP	0.2
RRIRPRPPRLPRPRPRPMFWPRP	-0.0858
RRIRTRPPRLPRPRPRPFMCPRP	-0.126
RRIRERPPRLPRPRPRPRKPPRP	-0.13
RRIRWRPPRLPRPRPRPQWIPRP	0.0797
RRIRLRPPRLPRPRPRPDCVPRP	0.0107
RRIRKRPPRLPRPRPRPQYHPRP	-0.432
RRIRCRPPRLPRPRPRPTFMPRP	-0.513
RRIRMRPPRLPRPRPRPVRWPRP	1.38
RRIRARPPRLPRPRPRPPALPRP	0.415
RRIRGRPPRLPRPRPRPYDKPRP	-0.147
RRIRSRPPRLPRPRPRPWPCPRP	0.134
RRIRGRPPRLPRPRPRPYIWPRP	-0.107
RRIRLRPPRLPRPRPRPMDDPRP	-0.117
RRIRFRPPRLPRPRPRPMENPRP	-0.0803
RRIRCRPPRLPRPRPRPKSYPRP	-0.443
RRIRARPPRLPRPRPRPYDMPRP	-0.0195
RRIRVRPPRLPRPRPRPYMQPRP	-0.547
RRIRCRPPRLPRPRPRPVIQPRP	-0.468
RRIRTRPPRLPRPRPRPLGNPRP	-0.159

Sequence	shrunken log2 fold change
RRIRPRPPRLPRPRPRPGDQPRP	3.33
RRIRPRPPRLPRPRPRPRALPRP	0.388
RRIRQRPPRLPRPRPRPNYIPRP	-0.445
RRIRKRPPRLPRPRPRPCFRPRP	-0.0108
RRIRWRPPRLPRPRPRPVWSPRP	0.163
RRIRNRPPRLPRPRPRPNVCPRP	0.00455
RRIRPRPPRLPRPRPRPPMEPRP	0.127
RRIRLRPPRLPRPRPRPTGKPRP	-0.202
RRIRDRPPRLPRPRPRPIYWPRP	0.202
RRIRGRPPRLPRPRPRPPCTPRP	0.76
RRIRHRPPRLPRPRPRPDYKPRP	0.00107
RRIRTRPPRLPRPRPRPWHNPRP	-0.0242
RRIRQRPPRLPRPRPRPVCAPRP	0.118
RRIRYRPPRLPRPRPRPIGFPRP	0.0062
RRIRNRPPRLPRPRPRPFVLPRP	-0.451
RRIRHRPPRLPRPRPRPNKWPRP	-0.0964
RRIRHRPPRLPRPRPRPFLLPRP	-0.502
RRIRGRPPRLPRPRPRPCMSPRP	0.151
RRIRIRPPRLPRPRPRPPTIPRP	-0.904
RRIRCRPPRLPRPRPRPMVHPRP	-0.452
